The values below come from article PMC2173048 (The Journal of Cell Biology, 2002).

The assay concerns the target T1, recombinant Kap121p (yeast, UniProt P32337 1-1089).
T1 sequence (looked up): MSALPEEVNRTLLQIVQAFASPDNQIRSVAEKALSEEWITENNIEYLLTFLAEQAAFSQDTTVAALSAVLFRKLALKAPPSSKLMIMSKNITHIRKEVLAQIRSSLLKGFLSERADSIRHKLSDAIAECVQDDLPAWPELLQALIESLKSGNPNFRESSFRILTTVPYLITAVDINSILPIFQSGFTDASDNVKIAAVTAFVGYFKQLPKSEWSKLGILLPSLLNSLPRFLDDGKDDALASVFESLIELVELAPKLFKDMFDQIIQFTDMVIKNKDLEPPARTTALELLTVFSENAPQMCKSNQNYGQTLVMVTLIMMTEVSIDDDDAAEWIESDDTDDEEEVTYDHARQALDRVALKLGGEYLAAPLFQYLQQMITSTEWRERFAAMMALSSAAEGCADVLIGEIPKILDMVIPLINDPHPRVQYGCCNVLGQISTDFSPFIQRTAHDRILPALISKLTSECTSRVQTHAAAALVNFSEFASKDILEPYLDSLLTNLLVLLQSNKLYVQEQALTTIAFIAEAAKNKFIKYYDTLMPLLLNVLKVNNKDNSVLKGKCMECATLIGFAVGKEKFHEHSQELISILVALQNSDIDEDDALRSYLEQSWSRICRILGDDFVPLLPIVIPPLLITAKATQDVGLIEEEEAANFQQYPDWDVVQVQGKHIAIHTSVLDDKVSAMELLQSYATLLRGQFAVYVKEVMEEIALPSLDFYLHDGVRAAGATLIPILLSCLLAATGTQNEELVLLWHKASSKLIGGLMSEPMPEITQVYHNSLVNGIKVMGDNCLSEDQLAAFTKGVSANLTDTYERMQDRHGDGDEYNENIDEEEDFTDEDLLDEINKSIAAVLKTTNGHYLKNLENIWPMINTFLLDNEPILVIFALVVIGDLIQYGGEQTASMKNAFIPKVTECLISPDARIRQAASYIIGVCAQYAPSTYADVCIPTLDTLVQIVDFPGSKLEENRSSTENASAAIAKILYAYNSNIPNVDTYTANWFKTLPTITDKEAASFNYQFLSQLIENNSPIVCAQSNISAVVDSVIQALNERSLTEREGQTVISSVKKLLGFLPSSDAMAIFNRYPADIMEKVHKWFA
Briefly: pull-down.

B1: GST-401–448 (domain or fragment, yeast, UniProt Q03790 401-448, looked up)
chain: RNAEFKVSKNSTSFKNPRRLEIKDGRSLFLRNRGKIHSGVLSSIESDL
For the molecule B1, the binding result was “binds”.
